From paper doi:10.1101/505453 come the findings set out here.

In this test the target is Oryza sativa hyperosmolality-gated protein OsOSCA1.2 (Oryza sativa (rice)). Briefly: SEC-MALS.

“Oryza sativa hyperosmolality-gated protein OsOSCA1.2 (natural protein)”: the stoichiometry N was 2.

Usually stoichiometry N stands for a count of units in the complex or per binding partner.
